{"source": "paper PMC3159463", "key": {"[1]": {"target": "pED208 TraM (plasmid pED208 (transfer-derepressed derivative of the Folac plasmid originally isolated from Salmonella typhi)) (UniProt P33788)", "assay": "crystal structure"}, "F TraM [2]": {"target": "T1, F TraM (F plasmid, UniProt P10026 1-127)", "T1 sequence": "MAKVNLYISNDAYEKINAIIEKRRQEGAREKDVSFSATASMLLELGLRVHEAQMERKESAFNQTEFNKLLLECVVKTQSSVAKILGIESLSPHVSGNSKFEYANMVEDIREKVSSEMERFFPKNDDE", "assay": "SEC-MALLS"}, "[3]": {"target": "T2, pED208 TraM N-terminal domain (plasmid pED208, UniProt P33788 2-52)", "T2 sequence": "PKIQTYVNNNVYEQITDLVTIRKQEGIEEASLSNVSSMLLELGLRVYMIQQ", "assay": "EMSA"}, "pED208 TraM": {"target": "T3, pED208 TraM (plasmid pED208 (IncFV, derivative of …, UniProt P33788 1-127))", "T3 sequence": "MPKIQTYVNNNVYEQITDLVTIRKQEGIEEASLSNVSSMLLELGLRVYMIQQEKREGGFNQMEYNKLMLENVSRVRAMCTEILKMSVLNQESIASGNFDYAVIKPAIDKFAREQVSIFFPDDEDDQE", "assay": "EMSA"}, "F TraM [4]": {"target": "T1, F TraM", "assay": "SEC-MALLS", "remark": "listed apart in the source"}, "[5]": {"target": "T4, TraM[F1-55:pED208 56-127] chimera (F plasmid / plasmid pED208 chimera, UniProt P10026 1-55+P33788:56-127, internal_change)", "T4 sequence": "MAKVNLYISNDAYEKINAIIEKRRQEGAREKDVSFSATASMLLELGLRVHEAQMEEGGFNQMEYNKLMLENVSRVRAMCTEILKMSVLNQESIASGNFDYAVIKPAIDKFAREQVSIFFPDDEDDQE", "assay": "EMSA"}}, "note": "Read-outs that look alike come from different tables or passages of the source.", "data": [{"molecule": "pED208 TraM (from UniProt P33788 1-127) (natural protein)", "values": [{"measurement": "stoichiometry N", "setting": "[1]", "value": 4}]}, {"molecule": "F sbmAB 75 bp (dsDNA) DNA 1: TTATATTAGGGGTGCTGCTAGCGGCGCGGTGTGTTTTTTTATAGGATACCGCTAGGGGCGCTGCTAGCGGTGCGT DNA 2: ACGCACCGCTAGCAGCGCCCCTAGCGGTATCCTATAAAAAAACACACCGCGCCGCTAGCAGCACCCCTAATATAA", "values": [{"measurement": "binding result", "setting": "F TraM [2]", "value": "binds"}]}, {"molecule": "pED208 sbmA 24 bp (pED 4site, palindromic) (dsDNA) DNA 1: AGATTCGAATCTAGATTCGAATCT DNA 2: AGATTCGAATCTAGATTCGAATCT", "values": [{"measurement": "binding signal", "setting": "[3]", "value": "~500 fold lower affinity than full-length"}, {"measurement": "Kd", "setting": "pED208 TraM", "value": "4.8 ± 0.7", "unit": "nM"}]}, {"molecule": "F sbmA 30 bp (dsDNA) DNA 1: GATACCGCTAGGGGCGCTGCTAGCGGTGCG DNA 2: CGCACCGCTAGCAGCGCCCCTAGCGGTATC", "values": [{"measurement": "binding result", "setting": "F TraM [4]", "value": "binds"}, {"measurement": "binding result", "setting": "[5]", "value": "binds"}]}]}
